From the RNAGym collection of RNA variant scans (doi:10.1073/pnas.2313332121)

B1: TPR t1 (parent)
chain: GACCAAUCUGCCCUCAGAGCUCGAGAACAUCUUCGGAUGCAGAGGAGGCAGGCUUCGGUGGCGCGAUAGCGCCAACGUCCUCAACCUCCAAUGCAUCCCACCACAUGAUGAUGCCUGAAGAGCCUUGGUUUUUUG

Variants of: B1
Experiment: polymerase ribozyme fitness, log enrichment relative to wild type (log ratio); higher = more active; in vitro selection for triplet polymerase activity
Method in brief: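 Both subunits of a heterodimeric triplet polymerase ribozyme were given their own mutant library, built by PCR and transcribed. Each library was annealed with a biotinylated primer, the partner subunit and triplets, incubated frozen at −7 °C, and its extended constructs gel-excised, captured on streptavidin beads and amplified by RT-PCR, all in one round done in triplicate. Fitness is the logarithm of genotype enrichment relative to wild-type enrichment, with replicates averaged by inverse-variance weighting. That logarithm is base 2, and Illumina-sequenced genotypes needed ≥10 input reads and ≥1 read per output.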

Variant	polymerase ribozyme fitness (log ratio)
G61A A105G	-1.89
C13G C89A A90C U130C	-3.77
C3U A66U	-1.8
C70G G110U	-4.62
C49A A50G	-1.27
C49A A50C G117U	-3.66
A18U A50U	-4.84
A29U G39A G117A	-2.71
A18U G36A	-3.63
G10A C11A A18C G42C G44A C101A	-4.26
G45A A68U C104U U109C	-6.38
C12U A26U U32G A46C G48U A50G A74U C94G C114G	-7.12
A74U C89G U112A	-2.2
C3U A16G A90G U112G U116C	0.876
C20A C40U	-3.35
C11G C40U C53U A68G U87A A90U U112A G127C	-6.81
C11G G25U	-4.49
G42A C64U	-2.45
C8A C12U C13G C98U	-1.16
C64U U131A	0.0289
U9G G45A U96G	-0.306
C8A G39A G44C C82U C86U G127C	-2.71
C8A A37C U78G A100C C101A U106G	-5.27
C4U U9G G35A G47U G48U G63A C104U G113U	-6.85

Variant	polymerase ribozyme fitness (log ratio)
U87G U96G C99U	-2.81
G63A A105U	-3.59
G42C C49G C56U	-2.41
C4U C56A C114A C124U	-3.31
A2U C76U	-1.64
G51U A84C C88A A121C	-1.74
C13U U78C U92G U106A	-2.62
C13A G52A C53U A75U U81G G120U C124U G127U	-1.17
G48A U54C U55A C94A A118U	-1.02
G25C G47U C64G U109A U133C	-6.25
C76G G120U U129A	-1.93
C13G C115A	-1.77
G42A C72A C123A	-1.85
G19C A37U A46C C72A C76U C82G C124A	-4.65
U112A U126G	0.0604
C28G G110A	-1.49
C11A C12U	-0.179
C13U C34A C64U A84C G113U	-4.89
C8A G120C	1.71
C3U A37U A84C	-0.656
G10U C40G G52C C98U C123U	-2.05
C56U U112A U134A	2.39
C11U G45C U81G	-4.91
G39U G58A A105C	-5.05

Variant	polymerase ribozyme fitness (log ratio)
A18U C22U A37U A118U	-5.28
C34U G60A	-5.21
U109C U126A	-4.99
A6C G36U U96G G120C G122A	-0.981
A16U A18C G52A U96C U112A	-4.51
U9G C11A U54G	-0.122
C40U G52C G93A	-1.38
C53U C73G C85U C102A	-5.04
U14A G36U A37U	-3.4
A29G C56G C62A	-4.43
C20U C56U C70U A84U U130C	-2.96
C34U G58A C97U C123G	-5.6
C22G C31A U92C U96A A111U	-5.09
G61C G93C	-3.2
C73U U96G	-0.308
A24G A37G G47A G120C	-1.98
G23A C72U C85U	-6.02
G61A C79G	-0.521
C8A G93A A108G	-2.37
G47U G61A U131A	-0.875
C88G G113C	-2.74
C70A C82U A84C U87C U116A C123G U131C	-1.57
C11G C86U	-0.354
A5U A46U U59C A90U C123A	-2.16

Variant	polymerase ribozyme fitness (log ratio)
G48A G77U G135U	-1.78
A50C C76U C88U	-1.73
A29U G48U C72G G120A	-3.12
C101G G135U	-2.44
A66U C73A C85G	-2.04
U7G C64U C73G C89A C104U A119U	-6.4
G71C C114G	-4.37
A2U G60U	-1.99
A5U A16C G57C G69A G93A	-6.66
C72A A103U	-4.58
C28A C49U G69U G113A	-1.42
A16C U87C	-2.31
A2G G44A	-0.766
A2U C15A C114U	-6.05
C72G C101A C114U	-3.4
G57A C82A C102A	-4.09
C20G C64A C70G G113A U125G U133G	-5.92
C12U G42U C49G C73U U96C	-2.57
G42A G63C C94G U130G	-4.71
C56A C98U	-1.91
C13U G61U U129A G135U	-0.936
G61U A84C	0.447
G47C G113C G127C	-3.94
A29C G47U G60C C97U	-6

Variant	polymerase ribozyme fitness (log ratio)
C13A G23C A50G G113C	-6.66
U7G C20U C53U A68C U112A	-6.37
C98U C114U	-3.88
C99U U112C G117A G128A	-5.01
A75G A83C U130C U132A	0.388
G47C	-1.82
A5U G113C	-2.11
G63U C124A	0.583
G44A A84U	-0.594
G69C C89G	-3.31
G77U G117A	-1.62
A27G A46G C101A	-3.22
C3A C34A	-3.91
C12A G48A	-0.767
C56A C98A	-5.59
G47C G69U A90C C104U	-1.9
A29U A118U	-1.3
A6C A18U A50C G77U U87A	-3.65
A29U G36U U112C	-1.39
G77U C104G	-6.6
C15A G45A C97U A121G U130G	-0.808
G10U C22G G60C C88A	-4.88
U33G G36A A111U	-7.33
C20U G120U	-1.57

Variant	polymerase ribozyme fitness (log ratio)
C64U G77C C79U C98A A121U U133C	-2.71
U96A C104A	-3.3
C11G A41G	0.309
G60U C72U A111U	-2.86
C53G G63U G122A	-1.7
C20A G61C A121G G128U	-5.15
G57U U96C G110U	-2.25
C20G G110C G120C	-6.34
A2G C123U	1.06
C22U U33A G36A G42A C72U U87A G113A	-6.59
C56G C98A	-3.95
C15U C62A	-2.1
C40U C49A C79U G113U U125C	-4.03
A37U G48A A105U A111U	-6.33
A26G C62A C89U	-4.69
G44A C72G A119G U125C	-2.76
A6C G44C G61A C80A U112A	-4.74
C49A G61C C80G C104A G117U	-8.34
C40U G45U U55A C73U	-1.76
A6U C15U	-1.43
C97U G128A	-2.66
C3U A6U G48A C62U C115U	-2.86
G25A C72U C124A	-6.83
G47A A50U C53A U78G	-2.33

Variant	polymerase ribozyme fitness (log ratio)
G71U G127A	-1.25
C49G G122U C124G	-1.12
G17A G122A	-3.37
C12G G107U	-5.64
A18C C72G U78C C104A C114G	-3.63
U7A	0.257
C3A C89U U96G C124A	0.0977
C56A U125G	-1.39
G19C C62G C115U	-4.26
C12A G42C G69U C80U	-1.06
G61U G117C U131C	-3.82
G47A C53U A95G	-3.19
C70A C89A C104U A111U G113A G127C	-6.35
C13U U112A U126G	0.677
A84U G93C	-1.39
A37G G57A G110C	-5.28
A5C C13U	-0.876
U7A U92A A103C	-5.64
C13A G113U	-4.1
C8U C12A G45A C56A	0.0537
C12G C13U G19U G44C C73A G93A	-4.75
G77C U131G	-0.172
C70U C86U G117A	-2.35
